We go through one substance from patent EP0733063B1.

Values joined by “and” are separate entries in the source; they are usually repeats but may differ in a detail not shown here. Equal entries are not always repeated.

Experiment [1] has as its target purified monoclonal anti-hCG antibody (anti-hCG-A antibody, gift from Organon Technika). As to the kind of experiment: ratio of affinity constants of hCG and of the oligopeptide for the antibody.
The target is the same in experiment [2]. The experiment is described as follows: fluorescence anisotropy displacement, non-linear curve fitting by Equation (6), 6 C.

For the substance “human chorionic gonadotrophin (hCG), highly purified, intact (from UniProt P01215 25-116; P0DN86 21-165) (ligand)”, the fold higher binding affinity than the oligopeptide in experiment [1] was 300 fold and 500 fold. For the same substance, the Ka in experiment [2] was found to be 9.4e+09 M⁻¹.
